# According to patent US20250043302A1, “MUTATED HYDROXYPHENYLPYRUVATE DIOXYGENASE POLYPEPTIDE, AND CODING GENE AND USE THEREOF” (BEIJING DABEINONG BIOTECHNOLOGY CO., LTD., priority 2021, published 2025):
# B1: AsHPPDm-F372A-02: nucleotide sequence encoding Avena sativa HPPD with F372A; vector DBN11728 (nucleic acid)
# DNA: ATGCCACCTACTCCAGCTACAGCTACTGGTGCTGCTGCTGCTGCCGTTACTCCTGAGCACGCTGCCAGGTCATTCCCCAGGGTGGTTCGCGTGAACCCCAGATCTGATAGGTTCCCAGTTCTGAGCTTCCACCATGTTGAGCTGTGGTGCGCTGATGCTGCTTCTGCTGCTGGCAGGTTCTCTTTCGCTCTTGGTGCTCCACTCGCTGCTAGATCTGATCTGTCTACAGGAAATAGCGCTCATGCCTCACTCCTGCTTCGCTCAGGTGCTTTGGCCTTCCTCTTCACCGCTCCATATGCTCCCCCACCTCAGGAGGCTGCTACTGCTGCTGCTACAGCCTCCATTCCAAGCTTCTCAGCTGATGCCGCTAGAACCTTCGCTGCTGCTCATGGACTTGCCGTGAGGTCTGTTGGTGTTCGCGTGGCTGATGCTGCTGAGGCTTTCAGAGTTTCCGTTGCCGGCGGAGCTAGGCCAGCTTTCGCTCCTGCTGATTTGGGACATGGTTTCGGCCTGGCTGAGGTTGAGCTTTACGGTGACGTGGTTCTCCGCTTCGTGTCTTACCCAGATGAGACTGACCTGCCTTTCCTTCCCGGCTTCGAGAGAGTTTCCTCTCCTGGTGCCGTGGATTACGGCCTGACAAGGTTCGACCACGTGGTTGGAAACGTTCCCGAGATGGCTCCAGTGATCGATTACATGAAGGGCTTCCTTGGATTCCATGAGTTCGCCGAGTTCACTGCTGAGGACGTGGGAACCACTGAGTCCGGTTTGAACTCTGTGGTTCTCGCCAACAATTCTGAGGCTGTTTTGCTCCCTCTGAATGAGCCTGTGCATGGAACCAAGAGGAGAAGCCAGATTCAAACTTACCTGGAGTACCACGGTGGCCCTGGAGTTCAGCATATCGCCCTTGCTTCTAATGATGTGTTGCGCACACTCAGAGAGATGCGCGCCAGAACCCCCATGGGAGGTTTCGAGTTCATGGCCCCACCACAGGCTAAGTACTACGAGGGCGTTAGAAGGATTGCTGGAGACGTGTTGAGCGAGGAGCAGATCAAGGAGTGCCAAGAGCTGGGTGTTCTTGTGGATAGGGATGACCAGGGCGTTCTGCTTCAAATTGCCACTAAGCCAGTGGGCGACCGCCCTACATTCTTCCTTGAGATGATTCAAAGAATCGGCTGCATGGAGAAGGATGAGGTTGGACAGGAGTACCAAAAGGGCGGATGCGGTGGCTTCGGAAAGGGTAACTTCAGCGAGTTGTTCAAGTCAATCGAGGACTACGAGAAGAGCCTCGAGGTGAAGCAGTCAGTGGTTGCCCAAAAGTCCTGA
# modifications: AsHPPDm-F372A-02 Nucleotide Sequence
# notes: vector DBN11728
# Assays:
# [1] = system: Arabidopsis thaliana T1 plants; assay: Topramezone tolerance of transgenic Arabidopsis thaliana T1 plants (spray, bleached leaf area grade, damage score); assay type: in vivo; details: for Classification and statistics of the grade of pesticide damage: Grade 0 / Classification and statistics of the grade of pesticide damage: Grade 1 / Classification and statistics of the grade of pesticide damage: Grade 2 / Classification and statistics of the grade of pesticide damage: Grade 3: number of plants; for Classification and statistics of the grade of pesticide damage: Grade 0 / Classification and statistics of the grade of pesticide damage: Grade 1 / Classification and statistics of the grade of pesticide damage: Grade 2 / Classification and statistics of the grade of pesticide damage: Grade 3 / Scores / Resistance evaluation: 7 DAT, Table 1; for Scores: pesticide damage score 0-100
# Source text: T1 transformants were initially selected from the untransformed seeds using a glufosinate selection scheme. The Arabidopsis thaliana T1 plants (AsHPPD-02) into which the AsHPPD-02 nucleotide sequence was introduced, the Arabidopsis thaliana T1 plants (AsHPPDm-F372A-02) into which the AsHPPDm-F372A-02 nucleotide sequence was introduced, the Arabidopsis thaliana T1 plants (AsHPPDm-F383W-02) into which the AsHPPDm-F383W-02 nucleotide sequence was introduced, the Arabidopsis thaliana T1 plants (AsHPPDm-F372A-F383W-02) into which the AsHPPDm-F372A-F383W-02 nucleotide sequence was introduced, the Arabidopsis thaliana T1 plants (DBN11726N) into which the control recombinant expression vector DBN11726N was introduced, and the wild-type Arabidopsis thaliana plants (CK) (18 days after sowing) were sprayed respectively with topramezone at three concentrations (100 g ai/ha (four-fold field concentration, 4×), 200 g ai/ha (eight-fold field concentration, 8×), and 0 g ai/ha (water, 0×)), isoxaflutole at three concentrations (140 g ai/ha (two-fold field concentration, 2×), 280 g ai/ha (four-fold field concentration, 4×), and 0 g ai/ha (water, 0×)), and mesotrione at three concentrations (210 g ai/ha (two-fold field concentration, […]), 420 g ai/ha (four-fold field concentration, 4×), and 0 g ai/ha (water, 0×)), to determine the tolerance of Arabidopsis thaliana to the herbicides. The degree of damage caused by the herbicide was measured for each plant according to the proportion of bleached leaf area (the proportion of bleached leaf area=bleached leaf area/total leaf area×100%) 7 days after spraying (7 DAT): the case where there is basically no bleached phenotype is defined as grade 0, the case where the proportion of bleached leaf area is less than 50% is defined as grade 1, the case where the proportion of bleached leaf area is more than 50% is defined as grade 2, and the case where the proportion of bleached leaf area is 100% grade is defined as grade 3.
# According to the method as described above in point 6 of Example 1, the aforementioned Arabidopsis thaliana T1 plants and wild-type Arabidopsis thaliana plants (CK) (18 days after sowing) were sprayed respectively with topramezone at three concentrations (25 g ai/ha (one-fold field concentration, 1×). 100 g ai/ha (four-fold field concentration, 4×), and 0 g ai/ha (water, 0×)), isoxaflutole at three concentrations (35 g ai/ha (half-fold field concentration, 0.5×). 70 g ai/ha (one-fold field concentration, 1×), and 0 g ai/ha (water, 0×)), and mesotrione at three concentrations (52.5 g ai/ha (half-fold field concentration, 0.5×), 105 g ai/ha (one-fold field concentration, 1×), and 0 g ai/ha (water, 0×)) to detect the tolerance of Arabidopsis thaliana to the herbicides.
# According to the method as described above in point 6 of Example 1, the aforementioned Arabidopsis thaliana T1 plants and wild-type Arabidopsis thaliana plants (CK) (18 days after sowing) were sprayed with topramezone at three different concentrations (i.e., 100 g ai/ha (four-fold field concentration, 4×), 200 g ai/ha (eight-fold field concentration, 8×) and 0 g ai/ha (water, 0×)), isoxaflutole at three different concentrations (i.e., 140 g ai/ha (two-fold field concentration, 2×), 280 g ai/ha (four-fold field concentration, 4×) and 0 g ai/ha (water, 0×)), and mesotrione at three different concentrations (i.e., 210 g ai/ha (two-fold field concentration, 2×), 420 g ai/ha (four-fold field concentration, 4×) and 0 g ai/ha (water, 0×)) respectively to detect the herbicide tolerance of Arabidopsis thaliana. […]
# [2] = system: Arabidopsis thaliana T1 plants; assay: Mesotrione tolerance of transgenic Arabidopsis thaliana T1 plants (spray, bleached leaf area grade, damage score); assay type: in vivo; set-up: Scores: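 damage score 0-100 computed as Σ(N×S)/(T×M)×100 over grades 0-3 with higher meaning more damage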; details: for Classification and statistics of the grade of pesticide damage Grade 0 / Classification and statistics of the grade of pesticide damage Grade 1 / Classification and statistics of the grade of pesticide damage Grade 2 / Classification and statistics of the grade of pesticide damage Grade 3: number of plants in grade
# Summary of the method: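 Damage was assessed by bleaching grade (0 none; 1 <50%; 2 >50%; 3 100% of leaf area) one week after spraying. Sprays on 18-day-old T1 and wild-type plants used field-rate multiples: topramezone 25–200, isoxaflutole 35–280, mesotrione 52.5–420 g ai/ha.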
# [3] = number of plants, mesotrione 210 g ai/ha (two-fold field concentration), 7 DAT, Table 3
molecule,measurement,setting,value
B1,Classification and statistics of the grade of pesticide damage: Grade 0,[1]; topramezone 100 g ai/ha (4×),16
same,Classification and statistics of the grade of pesticide damage: Grade 1,[1]; topramezone 100 g ai/ha (4×),0
same,Classification and statistics of the grade of pesticide damage: Grade 2,[1]; topramezone 100 g ai/ha (4×),0
same,Classification and statistics of the grade of pesticide damage: Grade 3,[1]; topramezone 100 g ai/ha (4×),0
same,Classification and statistics of the grade of pesticide damage: Grade 0,[1]; topramezone 200 g ai/ha (8×),16
same,Classification and statistics of the grade of pesticide damage: Grade 1,[1]; topramezone 200 g ai/ha (8×),0
same,Classification and statistics of the grade of pesticide damage: Grade 2,[1]; topramezone 200 g ai/ha (8×),0
same,Classification and statistics of the grade of pesticide damage: Grade 3,[1]; topramezone 200 g ai/ha (8×),0
same,Scores,[1]; topramezone 100 g ai/ha (4×),0
same,Scores,[1]; topramezone 200 g ai/ha (8×),0
same,Resistance evaluation,[1]; topramezone 100 g ai/ha (4×),highly resistant (highly resistant plants (scores 0-15))
same,Resistance evaluation,[1]; topramezone 200 g ai/ha (8×),highly resistant (highly resistant plants (scores 0-15))
same,tolerance to topramezone (resistance class),[1]; topramezone at four-fold or eight-fold field concentration,highly-resistant
same,tolerance to mesotrione (in words),[2]; in vivo,different degrees of tolerance
same,Resistance evaluation,[2]; mesotrione 210 g ai/ha,Moderately
same,Scores,[2]; mesotrione 210 g ai/ha,31
same,Resistance evaluation,"[2]; mesotrione 210 g ai/ha (two-fold field concentration), 7 DAT, Table 3",moderately
same,Classification and statistics of the grade of pesticide damage Grade 0,[2]; mesotrione 210 g ai/ha,5
same,Classification and statistics of the grade of pesticide damage Grade 1,[2]; mesotrione 210 g ai/ha,7
same,Classification and statistics of the grade of pesticide damage Grade 2,[2]; mesotrione 210 g ai/ha,4
same,Classification and statistics of the grade of pesticide damage Grade 3,[2]; mesotrione 210 g ai/ha,0
same,Resistance evaluation,[2]; mesotrione 420 g ai/ha,Poorly resistant
same,Scores,[2]; mesotrione 420 g ai/ha,50
same,Resistance evaluation,"[2]; mesotrione 420 g ai/ha (4×), 7 DAT, Table 3",poorly resistant (poorly resistant plants (scores 34-67))
same,Classification and statistics of the grade of pesticide damage Grade 0,[2]; mesotrione 420 g ai/ha,0
same,Classification and statistics of the grade of pesticide damage Grade 1,[2]; mesotrione 420 g ai/ha,8
same,Classification and statistics of the grade of pesticide damage Grade 2,[2]; mesotrione 420 g ai/ha,8
same,Classification and statistics of the grade of pesticide damage Grade 3,[2]; mesotrione 420 g ai/ha,0
same,tolerance to mesotrione (resistance class),[2]; mesotrione at four-fold field concentration,poorly-resistant
same,tolerance to mesotrione (resistance class),[2]; mesotrione at two-fold field concentration,moderately-resistant
same,Classification and statistics of the grade of pesticide damage: Grade 0,[2]; [3],5
same,Classification and statistics of the grade of pesticide damage: Grade 1,[2]; [3],7
same,Classification and statistics of the grade of pesticide damage: Grade 2,[2]; [3],4
